Blank lines part the entries; values can stand above or below the molecule they belong to.
What was measured:
[1] = biological target: atypical protein kinase C ι (aPKCι) (Homo sapiens, UniProt P41743)
GST-PAR6 (Par6a, cds) = biological target: T1, GST-PAR6 (Par6a, cds) (human, UniProt Q9NPB6 1-346); experiment: pull-down
T1 sequence (looked up): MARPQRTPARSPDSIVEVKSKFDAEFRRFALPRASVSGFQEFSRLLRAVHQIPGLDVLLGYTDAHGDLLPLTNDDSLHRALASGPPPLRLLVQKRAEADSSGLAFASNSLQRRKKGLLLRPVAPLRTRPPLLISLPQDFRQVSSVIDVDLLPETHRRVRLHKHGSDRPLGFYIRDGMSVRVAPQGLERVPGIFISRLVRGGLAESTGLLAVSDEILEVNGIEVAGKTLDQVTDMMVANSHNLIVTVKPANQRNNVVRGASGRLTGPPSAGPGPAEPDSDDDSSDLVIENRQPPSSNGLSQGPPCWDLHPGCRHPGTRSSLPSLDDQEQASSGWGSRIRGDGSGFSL

Molecule: O=C(O)CC([S][Au])C(=O)O (stereo not drawn) [ATM, aurothiomalate]
IC50 [1]: 20.4 µM

mean binding ratio at 10 μM ATM (0 μM ATM = 100%) (GST-PAR6 (Par6a, cds)): 63.8% | mean binding ratio at 50 μM ATM (0 μM ATM = 100%) (GST-PAR6 (Par6a, cds)): 32.7%
B1: HIS-aPKCι, PB1 domain of human atypical protein kinase C ι (amino acids 1–113) (domain or fragment, UniProt P41743 1-113, looked up)
chain: MPTQRDSSTMSHTVAGGGSGDHSHQVRVKAYYRGDIMITHFEPSISFEGLCNEVRDMCSFDNEQLFTMKWIDEEGDPCTVSSQLELEEAFRLYELNKDSELLIHVFPCVPERP

Source: PMC3973203 (Cell Death & Disease, 2014)
